Experimental data reported in patent US20090291439.

Chain of Akt1 (P31749 whole entry): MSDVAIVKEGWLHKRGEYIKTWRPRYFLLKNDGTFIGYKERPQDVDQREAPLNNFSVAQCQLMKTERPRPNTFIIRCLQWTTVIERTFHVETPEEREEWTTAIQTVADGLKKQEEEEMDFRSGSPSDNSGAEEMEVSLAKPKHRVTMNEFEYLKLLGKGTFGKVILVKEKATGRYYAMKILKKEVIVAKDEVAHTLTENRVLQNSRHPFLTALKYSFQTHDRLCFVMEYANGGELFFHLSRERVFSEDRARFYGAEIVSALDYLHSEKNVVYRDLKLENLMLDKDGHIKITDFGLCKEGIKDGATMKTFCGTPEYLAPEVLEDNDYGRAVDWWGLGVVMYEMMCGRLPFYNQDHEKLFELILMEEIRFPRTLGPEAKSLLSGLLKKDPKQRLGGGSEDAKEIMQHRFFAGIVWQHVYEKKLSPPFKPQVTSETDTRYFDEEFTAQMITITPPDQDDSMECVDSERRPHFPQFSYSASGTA

B1: human DUSP13 protein (protein)
chain: MDSLQKQDLRRPKIHGAVQASPYQPPTLASLQRLLWVRQAATLNHIDEVWPSLFLGDAYAARDKSKLIQLGITHVVNAAAGKFQVDTGAKFYRGMSLEYYGIEADDNPFFDLSVYFLPVARYIRAALSVPQGRVLVHCAMGVSRSATLVLAFLMICENMTLVEAIQTVQAHRNICPNSGFLRQLQVLDNRLGRETGRF
For B1, the “dephosphorylation of phosphorylated Ser-473 (FIG. 15, right, second panel from the top)” value (Akt2) was “directly dephosphorylates the phosphorylated Ser-473 thereof” and the “dephosphorylation of phosphorylated Ser-473 (FIG. 15, right, second panel from the top)” value (Akt1) was “directly dephosphorylates the phosphorylated Ser-473 thereof”.
